According to US20250157661:

B1: MMP1 (Enzo) (protein)
chain: FVLTEGNPRWEQTHLTYRIENYTPDLPRADVDHAIEKAFQLWSNVTPLTFTKVSEGQADIMISFVRGDHRDNSPFDGPGGNLAHAFQPGPGIGGDAHFDEDERWTNNFREYNLHRVAAHELGHSLGLSHSTDIGALMYPSYTFSGDVQLAQDDIDGIQAIYGRSQNPVQP
B2: MMP11 (Enzo) (protein)
chain: FVLSGGRWEKTDLTYRILRFPWQLVQEQVRQTMAEALKVWSDVTPLTFTEVHEGRADIMIDFARYWHGDDLPFDGPGGILAHAFFPKTHREGDVHFDYDETWTIGDDQGTDLLQVAAHEFGHVLGLQHTTAAKALMSAFYTFRYPLSLSPDDCRGVQHLYGQPWPTVTSRTPALG
B3: MMP12 (Enzo) (protein)
chain: GPVWRKHYITYRINNYTPDMNREDVDYAIRKAFQVWSNVTPLKFSKINTGMADILVVFARGAHGDFHAFDGKGGILAHAFGPGSGIGGDAHFDEDEFWTTHSGGTNLFLTAVHEIGHSLGLGHSSDPKAVMFPTYKYVDINTFRLSADDIRGIQSLYG
B4: MMP7 (Enzo) (protein)
chain: YSLFPNSPKWTSKVVTYRIVSYTRDLPHITVDRLVSKALNMWGKEIPLHFRKVVWGTADIMIGFARGAHGDSYPFDGPGNTLAHAFAPGTGLGGDAHFDEDERWTDGSSLGINFLYAATHELGHSLGMGHSSDPNAVMYPTYGNGDPQNFKLSQDDIKGIQKLYGKRSNSRKK

target: Indicator molecule containing the cleavable sequence GPQGIFGQ with a terminal biotin group connected via a polyethylene glycol spacer/linker (intact, Examples 1-6)

Compared with B1, B2 is lower in Reader value (lateral flow, CF1522-gold) with MMP at 0.5 ug/ml: 478 reader units for the first, 280 reader units for the second.

First: B3
Second: B4
The Reader value (lateral flow, CF1522-gold) with MMP at 0.5 ug/ml of the first is higher: 1250 reader units for the first, 373 reader units for the second.
